The target in the assay is T1, peptide DQ, ApCPEB PLD residues 121-140 with an N-terminal dansyl moiety (Aplysia californica, dansyl moiety (D*) on the N-terminus).
T1 construct: source: synthetic peptide, bought: GenScript
T1 peptide: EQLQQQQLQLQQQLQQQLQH
Put plainly: FRET or BRET + other: 1D 1H NMR; 20-mer peptides at 5 °C in 10 mM KH2PO4; excitation of Trp at 280 nm, dansyl emission at 530-550 nm; 1D 1H NMR with DSS as concentration standard. The conditions noted are these: both partners purified.

B1: peptide WQ, ApCPEB PLD residues 121-140 with an N-terminal Trp (peptide)
peptide: WEQLQQQQLQLQQQLQQQLQH
notes: Trp added at the N-terminus (excited at 280 nm as the fluorescence donor); Wild-type stretch with one added Trp as a fluorescence probe; source: synthetic peptide, bought: GenScript
Turning to B1, the binding result is given as “binds”.

B2: peptide QW, ApCPEB PLD residues 121-140 with a C-terminal Trp (peptide)
peptide: EQLQQQQLQLQQQLQQQLQHW
notes: Trp added at the C-terminus (excited at 280 nm as the fluorescence donor); Wild-type stretch with one added Trp as a fluorescence probe; source: synthetic peptide, bought: GenScript
As to B2, the binding result was “binds”.

Source of the values: publication PMC7953810, “Divergent CPEB prion-like domains reveal different assembly mechanisms for a generic amyloid-like fold” (BMC Biology, 2021).
